Four sequences from the supplement of paper PMC5998384 can be followed below.

The subject of data set [1] is HeLa Kyoto. As to the kind of experiment: thermal stability score vs G1/S (z-score of summed log2 fold changes over temperatures); higher = more thermally stable than in G1/S.
The test system of data set [2] is HeLa Kyoto. The experiment in a line: solubility in G1/S (NP-40 vs SDS abundance) (log2 ratio); higher = more soluble. As to conditions: cell cycle stage: G1/S.
The subject of data set [3] is HeLa Kyoto. The experiment in a line: solubility change mitosis vs G1/S (difference of NP-40 vs SDS log2 ratios) (log2 ratio difference); higher = more soluble in mitosis.
In data set [4] the test system is HeLa Kyoto. As to the kind of experiment: melting temperature (median over replicates), in situ; higher = more thermally stable.
[5] abbreviates: cell cycle stage: early G1 (4.5 h after nocodazole release).
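For melting temperature (median over replicates), in situ in this document: HeLa Kyoto cells synchronized by double thymidine or nocodazole block, proteins quantified by TMT10plex mass spectrometry, three independent biological replicates.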
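For solubility change mitosis vs G1/S (difference of NP-40 vs SDS log2 ratios) in this document: synchronized HeLa Kyoto cells (double thymidine block for G1/S, nocodazole release for mitosis), protein amounts in NP-40 versus SDS lysates quantified by mass spectrometry, three biological replicates.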
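For solubility in G1/S (NP-40 vs SDS abundance) in this document: HeLa Kyoto cells arrested at G1/S by double thymidine block, proteins quantified by TMT10plex mass spectrometry in mild NP-40 versus SDS extracts, three biological replicates.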
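For thermal stability score vs G1/S (z-score of summed log2 fold changes over temperatures) in this document: synchronized HeLa Kyoto cells, proteins quantified by TMT10plex mass spectrometry, three biological replicates, mitosis taken 0.5 h after nocodazole release, G1/S directly after double thymidine block.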

In the case of “MADGPRCKRRKQANPRRNNVTNYNTVVETNSDSDDEDKLHIVEEESVTDAADCEGVPEDDLPTDQTVLPGRSSEREGNAKNCWEDDRKEGQEILGPEAQADEAGCTVKDDECESDAENEQNHDPNVEEFLQQQDTAVIFPEAPEEDQRQGTPEASGHDENGTPDAFSQLLTCPYCDRGYKRFTSLKEHIKYRHEKNEDNFSCSLCSYTFAYRTQLERHMTSHKSGRDQRHVTQSGCNRKFKCTECGKAFKYKHHLKEHLRIHSGEKPYECPNCKKRFSHSGSYSSHISSKKCISLIPVNGRPRTGLKTSQCSSPSLSASPGSPTRPQIRQKIENKPLQEQLSVNQIKTEPVDYEFKPIVVASGINCSTPLQNGVFTGGGPLQATSSPQGMVQAVVLPTVGLVSPISINLSDIQNVLKVAVDGNVIRQVLENNQANLASKEQETINASPIQQGGHSVISAISLPLVDQDGTTKIIINYSLEQPSQLQVVPQNLKKENPVATNSCKSEKLPEDLTVKSEKDKSFEGGVNDSTCLLCDDCPGDINALPELKHYDLKQPTQPPPLPAAEAEKPESSVSSATGDGNLSPSQPPLKNLLSLLKAYYALNAQPSAEELSKIADSVNLPLDVVKKWFEKMQAGQISVQSSEPSSPEPGKVNIPAKNNDQPQSANANEPQDSTVNLQSPLKMTNSPVLPVGSTTNGSRSSTPSPSPLNLSSSRNTQGYLYTAEGAQEEPQVEPLDLSLPKQQGELLERSTITSVYQNSVYSVQEEPLNLSCAKKEPQKDSCVTDSEPVVNVIPPSANPINIAIPTVTAQLPTIVAIADQNSVPCLRALAANKQTILIPQVAYTYSTTVSPAVQEPPLKVIQPNGNQDERQDTSSEGVSNVEDQNDSDSTPPKKKMRKTENGMYACDLCDKIFQKSSSLLRHKYEHTGKRPHECGICKKAFKHKHHLIEHMRLHSGEKPYQCDKCGKRFSHSGSYSQHMNHRYSYCKREAEERDSTEQEEAGPEILSNEHVGARASPSQGDSDERESLTREEDEDSEKEEEEEDKEMEELQEEKECEKPQGDEEEEEEEEEVEEEEVEEAENEGEEAKTEGLMKDDRAESQASSLGQKVGESSEQVSEEKTNEA [ZEB1]”, the thermal stability score with HeLa Kyoto [1] (setting [5]) was -0.796; in the data set on HeLa Kyoto [1] (cell cycle stage: mitosis) it was 2.75. The “solubility in G1/S (log2)” value in the data set on HeLa Kyoto [2] was -0.154. Besides, the “solubility change mitosis (log2)” value in the data set on HeLa Kyoto [3] is -0.0271. Also, the melting temperature with HeLa Kyoto [4] (cell cycle stage: G1/S) is 52.8 °C; with HeLa Kyoto [4] (cell cycle stage: mitosis), 53.9 °C.

As for “MADGSLTGGGLEAAAMAPERMGWAVEQELASLEKGLFQDEDSCSDCSYRDKPGSSLQSFMPEGKTFFPEIFQTNQLLFYERFRAYQDYILADCKASEVQEFTAEFLEKVLEPSGWRAVWHTNVFKVLVEITDVDFAALKAVVRLAEPYLCDSQVSTFTMECMKELLDLKEHRLPLQELWVVFDDSGVFDQTALAIEHVRFFYQNIWRSWDEEEEDEYDYFVRCVEPRLRLHYDILEDRVPSGLIVDYHNLLSQCEESYRKFLNLRSSLSNCNSDSEQENISMVEGLKLYSEMEQLKQKLKLIENPLLRYVFGYQKNSNIQAKGVRSSGQKITHVVSSTMMAGLLRSLLTDRLCQEPGEEEREIQFHSDPLSAINACFEGDTVIVCPGHYVVHGTFSIADSIELEGYGLPDDIVIEKRGKGDTFVDCTGADIKISGIKFVQHDAVEGILIVHRGKTTLENCVLQCETTGVTVRTSAEFLMKNSDLYGAKGAGIEIYPGSQCTLSDNGIHHCKEGILIKDFLDEHYDIPKISMVNNIIHNNEGYGVVLVKPTIFSDLQENAEDGTEENKALKIQTSGEPDVAERVDLEELIECATGKMELCARTDPSEQVEGNCEIVNELIAASTQKGQIKKKRLSELGITQADDNLMSQEMFVGIVGNQFKWNGKGSFGTFLF [SHCBP1]”, the results for the thermal stability score with HeLa Kyoto [1] (setting [5]) and with HeLa Kyoto [1] (cell cycle stage: mitosis) were 0.216 and 1.36, respectively. Also, the “solubility in G1/S (log2)” value with HeLa Kyoto [2] was -0.00275. Also, in the data set on HeLa Kyoto [3], the “solubility change mitosis (log2)” value was -0.188. Also, the results for the melting temperature in the data set with HeLa Kyoto [4] (cell cycle stage: G1/S) and with HeLa Kyoto [4] (cell cycle stage: mitosis) were 49 °C and 50.4 °C, respectively.

Turning to “MADGVDHIDIYADVGEEFNQEAEYGGHDQIDLYDDVISPSANNGDAPEDRDYMDTLPPTVGDDVGKGAAPNVVYTYTGKRIALYIGNLTWWTTDEDLTEAVHSLGVNDILEIKFFENRANGQSKGFALVGVGSEASSKKLMDLLPKRELHGQNPVVTPCNKQFLSQFEMQSRKTTQSGQMSGEGKAGPPGGSSRAAFPQGGRGRGRFPGAVPGGDRFPGPAGPGGPPPPFPAGQTPPRPPLGPPGPPGPPGPPPPGQVLPPPLAGPPNRGDRPPPPVLFPGQPFGQPPLGPLPPGPPPPVPGYGPPPGPPPPQQGPPPPPGPFPPRPPGPLGPPLTLAPPPHLPGPPPGAPPPAPHVNPAFFPPPTNSGMPTSDSRGPPPTDPYGRPPPYDRGDYGPPGREMDTARTPLSEAEFEEIMNRNRAISSSAISRAVSDASAGDYGSAIETLVTAISLIKQSKVSADDRCKVLISSLQDCLHGIESKSYGSGSRRERSRERDHSRSREKSRRHKSRSRDRHDDYYRERSRERERHRDRDRDRDRERDREREYRHR [CPSF6]”, the thermal stability score in the data set on HeLa Kyoto [1] (setting [5]) is -1.57; with HeLa Kyoto [1] (cell cycle stage: mitosis) it was -2.72. Moreover, the “solubility in G1/S (log2)” value in the data set on HeLa Kyoto [2] was -0.195. The “solubility change mitosis (log2)” value in the data set on HeLa Kyoto [3] amounted to 0.0573. Further, the melting temperature with HeLa Kyoto [4] (cell cycle stage: G1/S) was found to be 53 °C; with HeLa Kyoto [4] (cell cycle stage: mitosis), 53.2 °C.

Consider “MADHSFSDGVPSDSVEAAKNASNTEKLTDQVMQNPRVLAALQERLDNVPHTPSSYIETLPKAVKRRINALKQLQVRCAHIEAKFYEEVHDLERKYAALYQPLFDKRREFITGDVEPTDAESEWHSENEEEEKLAGDMKSKVVVTEKAAATAEEPDPKGIPEFWFTIFRNVDMLSELVQEYDEPILKHLQDIKVKFSDPGQPMSFVLEFHFEPNDYFTNSVLTKTYKMKSEPDKADPFSFEGPEIVDCDGCTIDWKKGKNVTVKTIKKKQKHKGRGTVRTITKQVPNESFFNFFNPLKASGDGESLDEDSEFTLASDFEIGHFFRERIVPRAVLYFTGEAIEDDDNFEEGEEGEEEELEGDEEGEDEDDAEINPKV [NAP1L4]”, for which the thermal stability score in the data set with HeLa Kyoto [1] (setting [5]) is 1.4; in the data set with HeLa Kyoto [1] (cell cycle stage: mitosis) it was 0.831. The “solubility in G1/S (log2)” value with HeLa Kyoto [2] is 0.455. Further, in the data set with HeLa Kyoto [3], the “solubility change mitosis (log2)” value is -0.0294. Further, the melting temperature with HeLa Kyoto [4] (cell cycle stage: G1/S) turned out to be 51.4 °C; with HeLa Kyoto [4] (cell cycle stage: mitosis), 51.7 °C.
